In patent US20140087995A1 (published 2014):
Numbered stars: 1 amine (or outer) side, 2 acyl side, 3 side chain; on linkers, the order of the positions; unused ones are H or OH. Bridge positions count the residues as written; N and C are the ends. Side chains are listed from the residue outwards. Ends that are not written are not given here. * marks the point of attachment. C20 diacid = O=C(O)CCCCCCCCCCCCCCCCCCC(=O)*; γGlu = O=C(O)[C@H](CCC(=O)[*:2])N[*:1]; AEEA = NCCOCCOCC(=O)O

T1: human amylin receptor (human calcitonin receptor co-expressed with RAMP-3; amylin 3(a) receptor) (human, UniProt P30988 25-474; O60896 24-148, limits assumed)
T1 construct: whole, on cells; Used as cell membranes prepared from Amylin 3(a)/CRE-luc BHK cells (Assay V), not as intact cells; also called hAmylin-R; hAmylinR
T1 sequence (looked up) 1: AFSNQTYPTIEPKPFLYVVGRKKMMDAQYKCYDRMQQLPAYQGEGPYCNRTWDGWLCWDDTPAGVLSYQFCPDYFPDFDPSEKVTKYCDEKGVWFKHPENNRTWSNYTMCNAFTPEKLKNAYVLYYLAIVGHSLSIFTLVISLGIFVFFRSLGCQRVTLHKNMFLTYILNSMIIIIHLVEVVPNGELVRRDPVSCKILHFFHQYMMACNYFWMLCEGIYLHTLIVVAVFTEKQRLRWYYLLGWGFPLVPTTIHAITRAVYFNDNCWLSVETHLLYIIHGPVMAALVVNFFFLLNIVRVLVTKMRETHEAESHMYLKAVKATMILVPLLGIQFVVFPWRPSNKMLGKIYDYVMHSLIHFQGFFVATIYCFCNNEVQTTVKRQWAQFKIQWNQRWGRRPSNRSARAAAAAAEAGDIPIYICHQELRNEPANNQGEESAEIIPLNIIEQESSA
T1 sequence (looked up) 2: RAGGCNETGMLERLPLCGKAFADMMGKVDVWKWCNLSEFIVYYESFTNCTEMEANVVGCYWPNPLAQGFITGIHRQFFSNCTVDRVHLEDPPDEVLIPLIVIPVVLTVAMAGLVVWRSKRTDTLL

T2: human calcitonin receptor (human, UniProt P30988 25-474)
T2 construct: whole, on cells; Used as cell membranes prepared from the transfected BHK cells (Assay VII), not as intact cells; also called hCTR; hCT
T2 sequence (looked up): T1 sequence (looked up) 1

B1: N^ε1-[2-[2-[2-[[(4S)-4-carboxy-4-(19-carboxynonadecanoylamino)butanoyl]amino]ethoxy]ethoxy]acetyl]-[Arg14,Arg17,Pro21,Pro27,Pro31]-h-amylin (peptide)
peptide: K([AEEA-γGlu-C20 diacid])CNTATCATQRLARFLRHSSPNFGAIPSSTPVGSNTY-NH2
modifications: disulfide 2-7; N-terminus assumed
SMILES: CC[C@H](C)[C@H](NC(=O)[C@H](C)NC(=O)CNC(=O)[C@H](Cc1ccccc1)NC(=O)[C@H](CC(N)=O)NC(=O)[C@@H]1CCCN1C(=O)[C@H](CO)NC(=O)[C@H](CO)NC(=O)[C@H](Cc1c[nH]cn1)NC(=O)[C@H](CCCNC(=N)N)NC(=O)[C@H](CC(C)C)NC(=O)[C@H](Cc1ccccc1)NC(=O)[C@H](CCCNC(=N)N)NC(=O)[C@H](C)NC(=O)[C@H](CC(C)C)NC(=O)[C@H](CCCNC(=N)N)NC(=O)[C@H](CCC(N)=O)NC(=O)[C@@H](NC(=O)[C@H](C)NC(=O)[C@@H]1CSSC[C@H](NC(=O)[C@@H](N)CCCCNC(=O)COCCOCCNC(=O)CC[C@H](NC(=O)CCCCCCCCCCCCCCCCCCC(=O)O)C(=O)O)C(=O)N[C@@H](CC(N)=O)C(=O)N[C@@H]([C@@H](C)O)C(=O)N[C@@H](C)C(=O)N[C@@H]([C@@H](C)O)C(=O)N1)[C@@H](C)O)C(=O)N1CCC[C@H]1C(=O)N[C@@H](CO)C(=O)N[C@@H](CO)C(=O)N[C@H](C(=O)N1CCC[C@H]1C(=O)N[C@H](C(=O)NCC(=O)N[C@@H](CO)C(=O)N[C@@H](CC(N)=O)C(=O)N[C@H](C(=O)N[C@@H](Cc1ccc(O)cc1)C(N)=O)[C@@H](C)O)C(C)C)[C@@H](C)O
notes: also called compound 64
B2: N^ε1-[2-[2-[2-[[(4S)-4-carboxy-4-(19-carboxynonadecanoylamino)butanoyl]amino]ethoxy]ethoxy]acetyl]-[Arg17,Pro21,Pro27,Pro28,Pro34]-h-amylin (peptide)
peptide: K([AEEA-γGlu-C20 diacid])CNTATCATQRLANFLRHSSPNFGAIPPSTNVGPNTY-NH2
modifications: disulfide 2-7; N-terminus assumed
SMILES: CC[C@H](C)[C@H](NC(=O)[C@H](C)NC(=O)CNC(=O)[C@H](Cc1ccccc1)NC(=O)[C@H](CC(N)=O)NC(=O)[C@@H]1CCCN1C(=O)[C@H](CO)NC(=O)[C@H](CO)NC(=O)[C@H](Cc1c[nH]cn1)NC(=O)[C@H](CCCNC(=N)N)NC(=O)[C@H](CC(C)C)NC(=O)[C@H](Cc1ccccc1)NC(=O)[C@H](CC(N)=O)NC(=O)[C@H](C)NC(=O)[C@H](CC(C)C)NC(=O)[C@H](CCCNC(=N)N)NC(=O)[C@H](CCC(N)=O)NC(=O)[C@@H](NC(=O)[C@H](C)NC(=O)[C@@H]1CSSC[C@H](NC(=O)[C@@H](N)CCCCNC(=O)COCCOCCNC(=O)CC[C@H](NC(=O)CCCCCCCCCCCCCCCCCCC(=O)O)C(=O)O)C(=O)N[C@@H](CC(N)=O)C(=O)N[C@@H]([C@@H](C)O)C(=O)N[C@@H](C)C(=O)N[C@@H]([C@@H](C)O)C(=O)N1)[C@@H](C)O)C(=O)N1CCC[C@H]1C(=O)N1CCC[C@H]1C(=O)N[C@@H](CO)C(=O)N[C@H](C(=O)N[C@@H](CC(N)=O)C(=O)N[C@H](C(=O)NCC(=O)N1CCC[C@H]1C(=O)N[C@@H](CC(N)=O)C(=O)N[C@H](C(=O)N[C@@H](Cc1ccc(O)cc1)C(N)=O)[C@@H](C)O)C(C)C)[C@@H](C)O
notes: also called compound 55
B3: N^ε1-[2-[2-[2-[[(4S)-4-carboxy-4-(19-carboxynonadecanoylamino)butanoyl]amino]ethoxy]ethoxy]acetyl]-[Arg17,Pro21,Pro27,Pro29,Pro34]-h-amylin (peptide)
peptide: K([AEEA-γGlu-C20 diacid])CNTATCATQRLANFLRHSSPNFGAIPSPTNVGPNTY-NH2
modifications: disulfide 2-7; N-terminus assumed
SMILES: CC[C@H](C)[C@H](NC(=O)[C@H](C)NC(=O)CNC(=O)[C@H](Cc1ccccc1)NC(=O)[C@H](CC(N)=O)NC(=O)[C@@H]1CCCN1C(=O)[C@H](CO)NC(=O)[C@H](CO)NC(=O)[C@H](Cc1c[nH]cn1)NC(=O)[C@H](CCCNC(=N)N)NC(=O)[C@H](CC(C)C)NC(=O)[C@H](Cc1ccccc1)NC(=O)[C@H](CC(N)=O)NC(=O)[C@H](C)NC(=O)[C@H](CC(C)C)NC(=O)[C@H](CCCNC(=N)N)NC(=O)[C@H](CCC(N)=O)NC(=O)[C@@H](NC(=O)[C@H](C)NC(=O)[C@@H]1CSSC[C@H](NC(=O)[C@@H](N)CCCCNC(=O)COCCOCCNC(=O)CC[C@H](NC(=O)CCCCCCCCCCCCCCCCCCC(=O)O)C(=O)O)C(=O)N[C@@H](CC(N)=O)C(=O)N[C@@H]([C@@H](C)O)C(=O)N[C@@H](C)C(=O)N[C@@H]([C@@H](C)O)C(=O)N1)[C@@H](C)O)C(=O)N1CCC[C@H]1C(=O)N[C@@H](CO)C(=O)N1CCC[C@H]1C(=O)N[C@H](C(=O)N[C@@H](CC(N)=O)C(=O)N[C@H](C(=O)NCC(=O)N1CCC[C@H]1C(=O)N[C@@H](CC(N)=O)C(=O)N[C@H](C(=O)N[C@@H](Cc1ccc(O)cc1)C(N)=O)[C@@H](C)O)C(C)C)[C@@H](C)O
notes: also called compound 56
B4: N^ε1-[2-[2-[2-[[(4S)-4-carboxy-4-(19-carboxynonadecanoylamino)butanoyl]amino]ethoxy]ethoxy]acetyl]-[Arg17,Pro21,Pro27,Pro29,Pro31]-h-amylin (peptide)
peptide: K([AEEA-γGlu-C20 diacid])CNTATCATQRLANFLRHSSPNFGAIPSPTPVGSNTY-NH2
modifications: disulfide 2-7; N-terminus assumed
SMILES: CC[C@H](C)[C@H](NC(=O)[C@H](C)NC(=O)CNC(=O)[C@H](Cc1ccccc1)NC(=O)[C@H](CC(N)=O)NC(=O)[C@@H]1CCCN1C(=O)[C@H](CO)NC(=O)[C@H](CO)NC(=O)[C@H](Cc1c[nH]cn1)NC(=O)[C@H](CCCNC(=N)N)NC(=O)[C@H](CC(C)C)NC(=O)[C@H](Cc1ccccc1)NC(=O)[C@H](CC(N)=O)NC(=O)[C@H](C)NC(=O)[C@H](CC(C)C)NC(=O)[C@H](CCCNC(=N)N)NC(=O)[C@H](CCC(N)=O)NC(=O)[C@@H](NC(=O)[C@H](C)NC(=O)[C@@H]1CSSC[C@H](NC(=O)[C@@H](N)CCCCNC(=O)COCCOCCNC(=O)CC[C@H](NC(=O)CCCCCCCCCCCCCCCCCCC(=O)O)C(=O)O)C(=O)N[C@@H](CC(N)=O)C(=O)N[C@@H]([C@@H](C)O)C(=O)N[C@@H](C)C(=O)N[C@@H]([C@@H](C)O)C(=O)N1)[C@@H](C)O)C(=O)N1CCC[C@H]1C(=O)N[C@@H](CO)C(=O)N1CCC[C@H]1C(=O)N[C@H](C(=O)N1CCC[C@H]1C(=O)N[C@H](C(=O)NCC(=O)N[C@@H](CO)C(=O)N[C@@H](CC(N)=O)C(=O)N[C@H](C(=O)N[C@@H](Cc1ccc(O)cc1)C(N)=O)[C@@H](C)O)C(C)C)[C@@H](C)O
notes: also called compound 54

target: T1, human amylin receptor (human calcitonin …); assay: ratio of hCTR binding IC50 to hAmylin-R binding IC50 (reference: human calcitonin receptor)
Procedure: The resulting pellet was resuspended, homogenized and centrifuged (20.000 rpm, 15 min) in a buffer containing 20 mM Na-HEPES and 0.1 mM EDTA (pH 7.4, buffer 2). The resulting pellet was resuspended in buffer 2 and protein concentration was measured (BCA protein Assay, Pierce). The homogenate was kept cold during the whole procedure. The membranes were kept at −80° C. until use. The assay was performed in a 384 well Optiplate (PerkinElmer) in a total volume of 40 ul. Membranes were mixed with SPA beads. Final concentration of membranes 35 ng/μL final and SPA beads was 0.05 mg/well. Test-compounds were dissolved in DMSO and further diluted in assay buffer (50 mM Hepes, pH 7.4, 1 mM CaCl2, 5 mM MgCl₂, 0.1% OA and 0.02% Tween20). […] The final mixture was incubated with shaking at 400 rpm for 120 min at 25° C. prior to centrifugation (1500 rpm, 10 min). Samples were analyzed on TopCounter™ (Packard). The IC₅₀ was calculated using (one site binding competition analysis) GraphPad Prism5 as a measure of receptor affinity.
Membranes were prepared in the following way; the cells were rinsed with PBS and incubated with Versene for approximately 5 min before harvesting. The cells were flushed with PBS and the cell-suspension was centrifuged for 5 min at 1000 rpm. Cells were homogenized (Ultrathurrax) in a buffer containing 20 mM Na-HEPES and 10 mM EDTA (pH 7.4) and centrifuged at 20.000 rpm for 15 min. The resulting pellet was resuspended, homogenized and centrifuged (20.000 rpm, 15 min) in a buffer containing 20 mM Na-HEPES and 0.1 mM EDTA (pH 7.4, buffer 2). The resulting pellet was resuspended in buffer 2 and protein concentration was measured (BCA protein Assay, Pierce). The homogenate was kept cold during the whole procedure. The membranes were kept at −80° C. until use. Assay was performed in a 384 well Optiplate (PerkinElmer) in a total volume of 40 ul. Membranes were mixed with SPA beads.

Ratio hCT/hAmylin binding | Binder
126 | B1
51.8 | B2
104 | K([AEEA-γGlu-C20 diacid])CNTATCATQRLANFLRHSSPNFGAIPPSTPVGSNTY-NH2 (disulfide 2-7, also called compound 53)
42.6 | B3
146 | B4

target: T2, human calcitonin receptor; assay: SPA competition against 125I-calcitonin, membranes with human calcitonin receptor (Assay VII)
Outline: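 BHK hCTR membranes 35 ng/μL + SPA beads 0.05 mg/well; buffer 50 mM Hepes pH 7.4, 1 mM CaCl2, 5 mM MgCl₂, 0.1% OA, 0.02% Tween20. 120 min, 25° C., shaking. Scintillation count; IC50 by one-site binding competition.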

IC50 | Binder
56 nM | B1
2.17 nM | B2
5.38 nM | K([AEEA-γGlu-C20 diacid])CNTATCATQRLANFLRHSSPNFGAIPPSTPVGSNTY-NH2 (disulfide 2-7, also called compound 53)
2.09 nM | B3
4.38 nM | B4
